Experimental findings from patent US20220289828A1 are described below.

Experiment [1] has as its target B1 clade EV-D68 isolate (Enterovirus D68). Kind of experiment: cell-based or functional assay.
The target of experiment [2] is Enterovirus D68 US/MO/14-18947 virus particle (B1 clade) (Enterovirus D68). Kind of experiment: cryo-EM of Fab with B1 clade virus.
Experiment [3] shares this target. Kind of experiment: cryo-EM structure.

B1: mAb EV68-159 (antibody, V domains shown)
VH: EVQLVESGGGLVKPGGSLRLSCAASGFTFSTYIMTWVRQAPGRGLEWVSSISTSSVYTFYADSLKGRFTISRDNAKNSVYLQMNSLRADDTAVYYCAREEGFRAYNLYWGQGTLVTVSS
VL: QSVLTQPPSASGTPGQRVTISCSGSSSNIEYNYVYWYQKFPGTAPKLLIYKNNQRPSGVPDRFSGSKSGTSASLAISGLRSEDEGDYYCAAWDDILSGVVFGGGTKLTVL
In turn, B1 had an IC50 in a CCID50 neutralization assay in experiment [1] of 0.32 ng/mL.

B2: Fab EV68-159 (Fab, V domains shown)
VH: EVQLVESGGGLVKPGGSLRLSCAASGFTFSTYIMTWVRQAPGRGLEWVSSISTSSVYTFYADSLKGRFTISRDNAKNSVYLQMNSLRADDTAVYYCAREEGFRAYNLYWGQGTLVTVSS
VL: QSVLTQPPSASGTPGQRVTISCSGSSSNIEYNYVYWYQKFPGTAPKLLIYKNNQRPSGVPDRFSGSKSGTSASLAISGLRSEDEGDYYCAAWDDILSGVVFGGGTKLTVL
In experiment [2], B2 gave a copies of Fab bound to the virus particle of 60 copies. In experiment [3], this molecule gave a share of the masked surface area from the heavy chain of 77% and a viral surface area masked by each Fab of 990 Å^2.

B3: Fab EV68-228 (Fab, V domains shown)
VH: QVQLQESGPGLVKPSETLSLTCTVSGYLISNGYYWGWIRQSPGKGLEWIGSIYYTRDTYYNWSLKSRITISVDTSKKQFSLKLYSVTAADTAVYYCVRHEGSCNDGSCYGSFVDNWGQGTLVTVSS
VL: DIQMTQSPSSVSASVGDRVTLTCRASQDISSWLAWYQQKPGKAPKLLIYAASSLQSGVPSRFSGSGSGTHFTLTISSLQPEDFATYFCQQADSFITFGGGTKVEIK
In turn, B3 came in with a copies of Fab bound to the virus particle in experiment [2] of 60 copies. In addition, in experiment [3], the share of the masked surface area from the heavy chain was 84% and the viral surface area masked by each Fab amounted to 1170 Å^2.
